Data as given in paper PMC9482650, “Quantitative fragmentomics allow affinity mapping of interactomes” (Nature Communications, 2022).

What was measured:
Test in all cases: holdup assay
Parameters in all cases: key: below the threshold = too weak to quantify, mostly under pKd 3.1 to 4
APBA3_1, O96018 = target: T1, APBA3_1, O96018
T1 sequence (O96018 389-490, limits assumed, looked up): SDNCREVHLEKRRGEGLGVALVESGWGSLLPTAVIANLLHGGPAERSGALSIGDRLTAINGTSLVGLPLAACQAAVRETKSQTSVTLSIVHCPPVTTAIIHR

DFNB31_1, Q9P202 = target: T2, DFNB31_1, Q9P202
T2 sequence (Q9P202 135-233, limits assumed, looked up): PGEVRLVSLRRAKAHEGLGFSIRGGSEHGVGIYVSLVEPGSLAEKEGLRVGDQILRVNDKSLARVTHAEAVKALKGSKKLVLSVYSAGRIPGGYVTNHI

DFNB31_3, Q9P202 = target: T3, DFNB31_3, Q9P202
T3 sequence (Q9P202 811-907, limits assumed, looked up): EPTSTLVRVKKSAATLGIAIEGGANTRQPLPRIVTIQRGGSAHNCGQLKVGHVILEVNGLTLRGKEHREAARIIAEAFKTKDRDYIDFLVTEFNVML

DLG3_2, Q92796 = target: T4, DLG3_2, Q92796
T4 sequence (Q92796 221-321, limits assumed, looked up): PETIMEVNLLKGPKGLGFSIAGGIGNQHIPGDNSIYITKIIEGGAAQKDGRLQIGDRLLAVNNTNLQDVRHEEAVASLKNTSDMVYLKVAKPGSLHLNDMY

DLG5_1, Q8TDM6 = target: DLG5_1, Q8TDM6
Sequence of DLG5_1, Q8TDM6 (Q8TDM6 617-713): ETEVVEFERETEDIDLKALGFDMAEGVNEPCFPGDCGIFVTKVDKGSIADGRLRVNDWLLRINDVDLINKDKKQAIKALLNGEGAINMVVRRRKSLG

FRMPD3, Q5JV73 = target: FRMPD3, Q5JV73
Sequence of FRMPD3, Q5JV73 (Q5JV73 12-100): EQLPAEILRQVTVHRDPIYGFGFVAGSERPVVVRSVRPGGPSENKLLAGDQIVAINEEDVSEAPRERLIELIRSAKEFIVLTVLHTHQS

GORASP2, Q9H8Y8 = target: GORASP2, Q9H8Y8
GRASP, Q7Z6J2 = target: GRASP, Q7Z6J2
Sequence of GRASP, Q7Z6J2 (Q7Z6J2 96-193): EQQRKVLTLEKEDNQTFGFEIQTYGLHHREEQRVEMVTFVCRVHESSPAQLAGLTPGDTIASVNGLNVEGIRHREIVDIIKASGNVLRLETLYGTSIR

GRID2IP_2, A4D2P6 = target: GRID2IP_2, A4D2P6
Sequence of GRID2IP_2, A4D2P6 (A4D2P6 272-370): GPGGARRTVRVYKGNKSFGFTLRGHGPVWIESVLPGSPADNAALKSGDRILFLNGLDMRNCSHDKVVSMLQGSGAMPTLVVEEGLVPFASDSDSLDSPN

GRIP1_4, Q9Y3R0 = target: T5, GRIP1_4, Q9Y3R0
T5 sequence (Q9Y3R0 467-571, limits assumed, looked up): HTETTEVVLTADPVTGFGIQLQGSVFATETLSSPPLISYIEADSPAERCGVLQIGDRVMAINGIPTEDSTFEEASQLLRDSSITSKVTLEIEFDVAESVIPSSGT

GRIP2_4, Q9C0E4 = target: GRIP2_4, Q9C0E4
Sequence of GRIP2_4, Q9C0E4 (Q9C0E4 446-548): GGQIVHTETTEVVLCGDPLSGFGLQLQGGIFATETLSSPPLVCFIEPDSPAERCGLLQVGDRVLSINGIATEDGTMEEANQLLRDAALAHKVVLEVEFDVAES

GRIP2_6, Q9C0E4 = target: GRIP2_6, Q9C0E4
Sequence of GRIP2_6, Q9C0E4 (Q9C0E4 648-740): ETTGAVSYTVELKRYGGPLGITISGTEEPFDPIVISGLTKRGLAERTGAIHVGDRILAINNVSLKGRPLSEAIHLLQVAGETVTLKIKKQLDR

HTRA3, P83110 = target: T6, HTRA3, P83110
T6 sequence (P83110 354-453, limits assumed, looked up): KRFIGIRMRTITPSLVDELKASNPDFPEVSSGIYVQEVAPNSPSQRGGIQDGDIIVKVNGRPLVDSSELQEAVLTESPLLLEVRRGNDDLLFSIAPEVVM

IL16_3, Q14005 = target: IL16_3, Q14005
Sequence of IL16_3, Q14005 (Q14005 1107-1207): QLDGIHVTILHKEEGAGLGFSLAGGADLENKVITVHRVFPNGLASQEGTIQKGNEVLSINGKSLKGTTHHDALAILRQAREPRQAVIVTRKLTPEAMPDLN

IL16_4, Q14005 = target: IL16_4, Q14005
Sequence of IL16_4, Q14005 (Q14005 1229-1329): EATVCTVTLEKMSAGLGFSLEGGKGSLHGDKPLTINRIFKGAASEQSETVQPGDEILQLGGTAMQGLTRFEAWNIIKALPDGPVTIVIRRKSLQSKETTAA

Inadl_9, Q8NI35 = target: Inadl_9, Q8NI35
Sequence of Inadl_9, Q8NI35 (Q8NI35 1530-1615): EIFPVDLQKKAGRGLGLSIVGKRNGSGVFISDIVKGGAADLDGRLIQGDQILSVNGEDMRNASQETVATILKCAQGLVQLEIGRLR

LNX1_2, Q8TBB1 = target: LNX1_2, Q8TBB1
Sequence of LNX1_2, Q8TBB1 (Q8TBB1 371-470): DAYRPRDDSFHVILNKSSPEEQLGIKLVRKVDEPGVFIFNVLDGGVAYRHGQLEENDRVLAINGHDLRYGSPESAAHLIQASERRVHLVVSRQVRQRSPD

MAGI2_2, Q86UL8 = target: MAGI2_2, Q86UL8
Sequence of MAGI2_2, Q86UL8 (Q86UL8 410-522): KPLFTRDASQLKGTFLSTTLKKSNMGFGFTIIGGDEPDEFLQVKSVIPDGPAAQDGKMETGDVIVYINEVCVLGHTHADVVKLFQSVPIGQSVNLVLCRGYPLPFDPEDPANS

MPDZ_12, O75970 = target: T7, MPDZ_12, O75970
T7 sequence (O75970 1857-1958, limits assumed, looked up): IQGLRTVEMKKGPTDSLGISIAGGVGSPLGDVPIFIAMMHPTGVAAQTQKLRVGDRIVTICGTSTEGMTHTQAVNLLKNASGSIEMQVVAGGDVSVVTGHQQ

MPP2, Q14168 = target: T8, MPP2, Q14168
T8 sequence (Q14168 180-250, limits assumed, looked up): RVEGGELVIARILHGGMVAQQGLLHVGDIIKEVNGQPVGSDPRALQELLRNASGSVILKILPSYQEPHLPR

NOS1, P29475 = target: NOS1, P29475
Sequence of NOS1, P29475 (P29475 9-101): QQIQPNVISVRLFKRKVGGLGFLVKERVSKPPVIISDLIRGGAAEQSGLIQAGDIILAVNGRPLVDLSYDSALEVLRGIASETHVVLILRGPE

PDZRN3_1, Q9UPQ7 = target: T9, PDZRN3_1, Q9UPQ7
T9 sequence (Q9UPQ7 244-349, limits assumed, looked up): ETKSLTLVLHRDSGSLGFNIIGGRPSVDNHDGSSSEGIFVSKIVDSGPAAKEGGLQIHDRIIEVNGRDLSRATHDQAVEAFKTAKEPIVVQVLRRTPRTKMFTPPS

PICK1, Q9NRD5 = target: PICK1, Q9NRD5
Sequence of PICK1, Q9NRD5 (Q9NRD5 17-115): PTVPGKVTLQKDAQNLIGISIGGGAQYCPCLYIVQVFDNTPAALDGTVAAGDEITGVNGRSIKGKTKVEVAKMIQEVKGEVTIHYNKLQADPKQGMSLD

RADIL, Q96JH8 = target: T10, RADIL, Q96JH8
T10 sequence (Q96JH8 971-1071, limits assumed, looked up): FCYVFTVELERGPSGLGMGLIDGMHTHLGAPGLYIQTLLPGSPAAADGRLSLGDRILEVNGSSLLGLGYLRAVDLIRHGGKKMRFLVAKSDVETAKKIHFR

TIAM2, Q8IVF5 = target: T11, TIAM2, Q8IVF5
T11 sequence (Q8IVF5 885-986, limits assumed, looked up): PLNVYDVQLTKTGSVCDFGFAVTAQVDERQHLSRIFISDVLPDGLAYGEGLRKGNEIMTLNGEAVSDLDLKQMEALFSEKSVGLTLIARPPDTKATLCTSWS

TJP1_3, Q07157 = target: TJP1_3, Q07157
Sequence of TJP1_3, Q07157 (Q07157 416-512): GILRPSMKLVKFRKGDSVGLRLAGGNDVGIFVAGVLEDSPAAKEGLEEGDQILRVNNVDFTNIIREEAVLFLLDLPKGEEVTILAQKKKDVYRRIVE

[1] = plain residues with an end cap or a label only (N-terminal biotin on a linker: ado-ado)
[2] = plain residues with an end cap or a label only (N-terminal biotin on a linker: ahx)

## QKNKDKEYYV [NRXN3_rs746444206, Q9Y4C0]
APBA3_1, O96018; [1]
  pKd: below the threshold
DFNB31_1, Q9P202; [1]
  pKd: below the threshold
DFNB31_3, Q9P202; [1]
  pKd: 3.82
DLG3_2, Q92796; [1]
  pKd: below the threshold
DLG5_1, Q8TDM6; [1]
  pKd: below the threshold
FRMPD3, Q5JV73; [1]
  pKd: 3.9
GORASP2, Q9H8Y8; [1]
  pKd: 4.47
GRASP, Q7Z6J2; [1]
  pKd: below the threshold
GRID2IP_2, A4D2P6; [1]
  pKd: below the threshold
GRIP1_4, Q9Y3R0; [1]
  pKd: below the threshold
GRIP2_4, Q9C0E4; [1]
  pKd: below the threshold
GRIP2_6, Q9C0E4; [1]
  pKd: 4.02
HTRA3, P83110; [1]
  pKd: 4.64
IL16_3, Q14005; [1]
  pKd: below the threshold
IL16_4, Q14005; [1]
  pKd: below the threshold
Inadl_9, Q8NI35; [1]
  pKd: 4.41
LNX1_2, Q8TBB1; [1]
  pKd: 4
MAGI2_2, Q86UL8; [1]
  pKd: 4.02
MPDZ_12, O75970; [1]
  pKd: below the threshold
MPP2, Q14168; [1]
  pKd: 4.12
NOS1, P29475; [1]
  pKd: 3.88
PDZRN3_1, Q9UPQ7; [1]
  pKd: below the threshold
PICK1, Q9NRD5; [1]
  pKd: below the threshold
RADIL, Q96JH8; [1]
  pKd: 4.51
TIAM2, Q8IVF5; [1]
  pKd: 4.34
TJP1_3, Q07157; [1]
  pKd: below the threshold

## HSGSYLVTSV [APC, P25054]
APBA3_1, O96018; [2]
  pKd: below the threshold
DFNB31_1, Q9P202; [2]
  pKd: 3.93
DFNB31_3, Q9P202; [2]
  pKd: 3.67
DLG3_2, Q92796; [2]
  pKd: 5.07
DLG5_1, Q8TDM6; [2]
  pKd: below the threshold
FRMPD3, Q5JV73; [2]
  pKd: below the threshold
GORASP2, Q9H8Y8; [2]
  pKd: 4.41
GRASP, Q7Z6J2; [2]
  pKd: 5.06
GRID2IP_2, A4D2P6; [2]
  pKd: 4.41
GRIP1_4, Q9Y3R0; [2]
  pKd: below the threshold
GRIP2_4, Q9C0E4; [2]
  pKd: below the threshold
GRIP2_6, Q9C0E4; [2]
  pKd: below the threshold
HTRA3, P83110; [2]
  pKd: below the threshold
IL16_3, Q14005; [2]
  pKd: below the threshold
IL16_4, Q14005; [2]
  pKd: below the threshold
Inadl_9, Q8NI35; [2]
  pKd: below the threshold
LNX1_2, Q8TBB1; [2]
  pKd: 3.79
MAGI2_2, Q86UL8; [2]
  pKd: 4.18
MPDZ_12, O75970; [2]
  pKd: 3.63
MPP2, Q14168; [2]
  pKd: below the threshold
NOS1, P29475; [2]
  pKd: 3.68
PDZRN3_1, Q9UPQ7; [2]
  pKd: below the threshold
PICK1, Q9NRD5; [2]
  pKd: below the threshold
RADIL, Q96JH8; [2]
  pKd: 4.23
TIAM2, Q8IVF5; [2]
  pKd: below the threshold
TJP1_3, Q07157; [2]
  pKd: below the threshold
